Data reported in patent US20200038441A1 (NANTKWEST, published 2020).

Target: PD-L1 on SUP-B15 PD-L1+ cells (UniProt Q9NZQ7 19-290, limits assumed)
Experiment: cell-based or functional assay

Sequence of PD-L1 on SUP-B15 PD-L1+ cells (Q9NZQ7 19-290 limits assumed): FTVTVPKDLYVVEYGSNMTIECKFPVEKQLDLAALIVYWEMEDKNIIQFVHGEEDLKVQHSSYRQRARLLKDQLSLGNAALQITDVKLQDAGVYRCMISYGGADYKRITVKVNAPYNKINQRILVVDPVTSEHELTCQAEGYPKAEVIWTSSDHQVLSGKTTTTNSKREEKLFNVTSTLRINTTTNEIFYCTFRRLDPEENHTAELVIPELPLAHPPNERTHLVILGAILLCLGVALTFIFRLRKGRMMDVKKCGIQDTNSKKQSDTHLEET

B1: PD-L1 CAR expressed on aTGFβ/PD-L1 t-haNK cells (other)
chain: MDWIWRILFLVGAATGAHSAQPANIQMTQSPSSVSASVGDRVTITCRASQDISRWLAWYQQKPGKAPKLLIYAASSLQSGVPSRFSGSGSGTDFALTISSLQPEDFATYYCQQADSRFSITFGQGTRLEIKGGGGSGGGGSGGGGSGGGGSEVQLVQSGGGLVQPGGSLRLSCAASGFTFSSYSMNWVRQAPGKGLEWVSYISSSSSTIQYADSVKGRFTISRDNAKNSLYLQMNSLRDEDTAVYYCARGDYYYGMDVWGQGTTVTVSSAAALSNSIMYFSHFVPVFLPAKPTTTPAPRPPTPAPTIASQPLSLRPEACRPAAGGAVHTRGLDFACFWVLVVVGGVLACYSLLVTVAFIIFWVRLKIQVRKAAITSYEKSDGVYTGLSTRNQETYETLKHEKPPQ
specific killing of SUP-B15 PD-L1+ target cells, 4 h cytotoxicity assay, effector to target ratio of 8: ~70%
